Results from publication PMC5321513 (Structure (London, England : 1993), 2017).
[ ]: non-standard residue; d: D form. pS = N[C@@H](COP(=O)(O)O)C(=O)O

What was measured:
14-3-3σ Clu3 (1-231) = target: T1, 14-3-3σ Clu3 (1-231) (human, UniProt P31947 1-231, 75EEK77 → AAA); test: crystal structure
T1 sequence: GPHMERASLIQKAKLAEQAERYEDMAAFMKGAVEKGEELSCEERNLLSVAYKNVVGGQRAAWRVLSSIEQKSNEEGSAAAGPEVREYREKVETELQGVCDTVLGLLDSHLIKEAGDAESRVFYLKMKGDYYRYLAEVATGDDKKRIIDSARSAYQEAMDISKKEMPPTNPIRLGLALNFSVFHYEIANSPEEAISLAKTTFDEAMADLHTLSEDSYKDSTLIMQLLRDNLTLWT

14-3-3σ WT (1-231) = target: T2, 14-3-3σ WT (1-231) (human, UniProt P31947 1-231); test: other fluorescence titration
T2 sequence: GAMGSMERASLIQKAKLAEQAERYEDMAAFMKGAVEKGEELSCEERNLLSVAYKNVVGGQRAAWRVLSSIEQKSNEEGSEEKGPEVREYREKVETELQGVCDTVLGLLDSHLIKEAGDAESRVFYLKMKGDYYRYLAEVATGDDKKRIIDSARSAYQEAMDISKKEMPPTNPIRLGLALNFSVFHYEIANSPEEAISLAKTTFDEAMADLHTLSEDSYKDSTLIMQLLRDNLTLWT

B1: pHSPB6(13-20) phosphopeptide (peptide, UniProt O14558 13-20, looked up)
peptide: H-RRA[pS]APLP-OH
SMILES: CC(C)C[C@H](NC(=O)[C@@H]1CCCN1C(=O)[C@H](C)NC(=O)[C@H](COP(=O)(O)O)NC(=O)[C@H](C)NC(=O)[C@H](CCCNC(=N)N)NC(=O)[C@@H](N)CCCNC(=N)N)C(=O)N1CCC[C@H]1C(=O)O
binding result (14-3-3σ Clu3 (1-231)): binds

B2: AEDANS-labeled phosphorylated full-length HSPB6 (natural protein, human, UniProt O14558 1-160, looked up)
chain: MEIPVPVQPSWLRRASAPLPGLSAPGRLFDQRFGEGLLEAELAALCPTTLAPYYLRAPSVALPVAQVPTDPGHFSVLLDVKHFSPEEIAVKVVGEHVEVHARHEERPDEHGFVAREFHRRYRLPPGVDPAAVTSALSPEGVLSIQAAPASAQAPPPAAAK
modifications: phosphoserine at 16; 1,5-I-AEDANS moiety on Cys46 (extent of labeling 90%)
Kd (14-3-3σ WT (1-231)): 560 ± 200 nM
